Laboratory results taken from IntAct's records for PubMed 15886098.

B1: Tyrosine-protein kinase ABL2 (Homo sapiens), P42684 (parent)
chain: MGQQVGRVGEAPGLQQPQPRGIRGSSAARPSGRRRDPAGRTTETGFNIFTQHDHFASCVEDGFEGDKTGGSSPEALHRPYGCDVEPQALNEAIRWSSKENLLGATESDPNLFVALYDFVASGDNTLSITKGEKLRVLGYNQNGEWSEVRSKNGQGWVPSNYITPVNSLEKHSWYHGPVSRSAAEYLLSSLINGSFLVRESESSPGQLSISLRYEGRVYHYRINTTADGKVYVTAESRFSTLAELVHHHSTVADGLVTTLHYPAPKCNKPTVYGVSPIHDKWEMERTDITMKHKLGGGQYGEVYVGVWKKYSLTVAVKTLKEDTMEVEEFLKEAAVMKEIKHPNLVQLLGVCTLEPPFYIVTEYMPYGNLLDYLRECNREEVTAVVLLYMATQISSAMEYLEKKNFIHRDLAARNCLVGENHVVKVADFGLSRLMTGDTYTAHAGAKFPIKWTAPESLAYNTFSIKSDVWAFGVLLWEIATYGMSPYPGIDLSQVYDLLEKGYRMEQPEGCPPKVYELMRACWKWSPADRPSFAETHQAFETMFHDSSISEEVAEELGRAASSSSVVPYLPRLPILPSKTRTLKKQVENKENIEGAQDATENSASSLAPGFIRGAQASSGSPALPRKQRDKSPSSLLEDAKETCFTRDRKGGFFSSFMKKRNAPTPPKRSSSFREMENQPHKKYELTGNFSSVASLQHADGFSFTPAQQEANLVPPKCYGGSFAQRNLCNDDGGGGGGSGTAGGGWSGITGFFTPRLIKKTLGLRAGKPTASDDTSKPFPRSNSTSSMSSGLPEQDRMAMTLPRNCQRSKLQLERTVSTSSQPEENVDRANDMLPKKSEESAAPSRERPKAKLLPRGATALPLRTPSGDLAITEKDPPGVGVAGVAAAPKGKEKNGGARLGMAGVPEDGEQPGWPSPAKAAPVLPTTHNHKVPVLISPTLKHTPADVQLIGTDSQGNKFKLLSEHQVTSSGDKDRPRRVKPKCAPPPPPVMRLLQHPSICSDPTEEPTALTAGQSTSETQEGGKKAALGAVPISGKAGRPVMPPPQVPLPTSSISPAKMANGTAGTKVALRKTKQAAEKISADKISKEALLECADLLSSALTEPVPNSQLVDTGHQLLDYCSGYVDCIPQTRNKFAFREAVSKLELSLQELQVSSAAAGVPGTNPVLNNLLSCVQEISDVVQR
partner: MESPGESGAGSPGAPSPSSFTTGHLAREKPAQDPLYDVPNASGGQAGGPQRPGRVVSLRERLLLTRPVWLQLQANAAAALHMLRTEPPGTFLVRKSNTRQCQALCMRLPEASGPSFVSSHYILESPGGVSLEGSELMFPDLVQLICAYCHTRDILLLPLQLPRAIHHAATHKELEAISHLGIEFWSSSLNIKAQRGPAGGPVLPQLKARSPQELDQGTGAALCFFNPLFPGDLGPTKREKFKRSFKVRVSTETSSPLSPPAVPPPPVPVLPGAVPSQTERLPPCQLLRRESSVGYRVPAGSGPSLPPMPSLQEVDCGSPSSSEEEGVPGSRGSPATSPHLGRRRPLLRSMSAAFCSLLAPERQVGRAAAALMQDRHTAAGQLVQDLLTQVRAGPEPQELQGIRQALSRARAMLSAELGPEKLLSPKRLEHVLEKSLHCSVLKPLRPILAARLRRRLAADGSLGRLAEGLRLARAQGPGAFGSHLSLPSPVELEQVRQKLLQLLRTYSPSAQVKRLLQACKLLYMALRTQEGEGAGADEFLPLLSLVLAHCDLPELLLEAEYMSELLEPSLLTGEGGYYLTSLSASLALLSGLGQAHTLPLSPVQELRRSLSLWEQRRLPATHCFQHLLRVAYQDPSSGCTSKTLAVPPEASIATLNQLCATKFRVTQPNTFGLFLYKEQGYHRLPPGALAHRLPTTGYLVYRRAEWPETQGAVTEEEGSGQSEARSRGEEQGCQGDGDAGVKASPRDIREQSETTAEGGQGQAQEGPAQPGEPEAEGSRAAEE
B2: Ras and Rab interactor 1 (Homo sapiens), Q13671 (parent)
chain: B1 partner

Variants of: B1
Settings: with rin1_human RIN1, Q13671
With K317R the “effect of a mutation on the interaction” value was “decreasing interaction”.

Variants of: B2
Settings: with abl2_human ABL2, P42684
Y36F;Y121F;Y148F was tested, and the “effect of a mutation on the interaction” value was “decreasing interaction”.
